The numbers were not newly measured in patent publication US8536148B2, “Disabling autophagy as a treatment for lysosomal storage diseases” (The United States of America, as Represented by the …, priority 2009, dated 2013), which cites them from elsewhere.

In this series the test system is Hunter syndrome patients.
[1] abbreviates: from baseline, both dosing regimens.

B1: idursulfase: recombinant human I2S produced in a human cell line, approved for Hunter syndrome (protein, UniProt P22304 34-455; P22304 456-550, looked up)
Iduronate 2-sulfatase 42 kDa …: TDALNVLLIIVDDLRPSLGCYGDKLVRSPNIDQLASHSLLFQNAFAQQAVCAPSRVSFLTGRRPDTTRLYDFNSYWRVHAGNFSTIPQYFKENGYVTMSVGKVFHPGISSNHTDDSPYSWSFPPYHPSSEKYENTKTCRGPDGELHANLLCPVDVLDVPEGTLPDKQSTEQAIQLLEKMKTSASPFFLAVGYHKPHIPFRYPKEFQKLYPLENITLAPDPEVPDGLPPVAYNPWMDIRQREDVQALNISVPYGPIPVDFQRKIRQSYFASVSYLDTQVGRLLSALDDLQLANSTIIAFTSDHGWALGEHGEWAKYSNFDVATHVPLIFYVPGRTASLPEAGEKLFPYLDPFDSASQLMEPGRQSMDLVELVSLFPTLAGLAGLQVPPRCPVPSFHVELCREGKNLLKHFRFRDLEEDPYLPG
Iduronate 2-sulfatase 14 kDa …: NPRELIAYSQYPRPSDIPQWNSDKPSLKDIKIMGYSIRTIDYRYTVWVGFNPDEFLANFSDIHAGELYFVDSDPLQDHNMYNDSQGGDLFQLLMP
With B1, under setting [1], the “Liver and spleen volumes” value is “significantly reduced from baseline”; the “Urine GAG excretion” value was “significantly reduced from baseline”. Also, the Tolerability entry (human, in vivo) is “generally well tolerated”. Moreover, for the setting “patients with Hunter syndrome”, the “Clinical improvement vs placebo” value was “statistically significant improvement rate compared with placebo”.
